Data: publication PMC4993999, “Asymmetry in inward- and outward-affinity constant of transport explain unidirectional lysine flux in Saccharomyces cerevisiae” (Scientific Reports, 2016)

What was measured:
[1] = substrate: NCCCC[C@H](N)C(=O)O; assay: purified protein; type: biochemical, Saccharomyces cerevisiae; settings: PMF-driven: ΔΨ -84 mV, ZΔpH -84 mV, external pH 6.0, internal pH 7.3, 30 °C, labelled compound, high-affinity component (out-to-in) of hyperbola plus linear fit
[2] = substrate: NCCCC[C@H](N)C(=O)O; assay: cells, lysate or membranes; type: cell-based, Saccharomyces cerevisiae; settings: whole cells 22∆6AAL, 100 mM potassium phosphate, 10 mM glucose, pH 6.0, 30 °C, labelled compound
[3] = substrate: NCCCC[C@H](N)C(=O)O; assay: purified protein; settings: PMF-driven: ΔΨ -84 mV, ZΔpH -84 mV, external pH 6.0, internal pH 7.3, 30 °C, labelled compound

B1: Lyp1-GFP (Lyp1-TEV-GFP-His10) (Saccharomyces cerevisiae S288C) (protein)
chain: MGRFSNIITSNKWDEKQNNIGEQSMQELPEDQIEHEMEAIDPSNKTTPYSIDEKQYNTKKKHGSLQGGAIADVNSITNSLTRLQVVSHETDINEDEEEAHYEDKHVKRALKQRHIGMIALGGTIGTGLFVGISTPLSNAGPVGSLIAYIFMGTIVYFVTQSLGEMATFIPVTSSITVFSKRFLSPAFGVSNGYMYWFNWAITYAVEVSVIGQVIEYWTDKVPLAAWIAIFWVIITLMNFFPVKVYGEFEFWVASVKVLAIMGYLIYALIIVCGGSHQGPIGFRYWRNPGAWGPGIISSDKSEGRFLGWVSSLINAAFTYQGTELVGITAGEAANPRKTVPRAINKVVFRIVLFYIMSLFFIGLLVPYNDSRLSASSAVIASSPFVISIQNAGTYALPDIFNAVVLITVVSAANSNVYVGSRVLYSLARTGNAPKQFGYVTRQGVPYLGVVCTAALGLLAFLVVNNNANTAFNWLINISTLAGLCAWLFISLAHIRFMQALKHRGISRDDLPFKAKLMPYGAYYAAFFVTVIIFIQGFQAFCPFKVSEFFTSYISLILLAVVFIGCQIYYKCRFIWKLEDIDIDSDRREIEAIIWEDDEPKNLWEKFWAAVA
notes: full length, C-terminal TEV-GFP-His10 kept; expressed in Pichia pastoris SMD1163; purified and reconstituted in yeast/E. coli lipid vesicles
- Km [1]: 20 ± 14 µM

B2: Lyp1-YPet (Saccharomyces cerevisiae S288C) (protein)
chain: MGRFSNIITSNKWDEKQNNIGEQSMQELPEDQIEHEMEAIDPSNKTTPYSIDEKQYNTKKKHGSLQGGAIADVNSITNSLTRLQVVSHETDINEDEEEAHYEDKHVKRALKQRHIGMIALGGTIGTGLFVGISTPLSNAGPVGSLIAYIFMGTIVYFVTQSLGEMATFIPVTSSITVFSKRFLSPAFGVSNGYMYWFNWAITYAVEVSVIGQVIEYWTDKVPLAAWIAIFWVIITLMNFFPVKVYGEFEFWVASVKVLAIMGYLIYALIIVCGGSHQGPIGFRYWRNPGAWGPGIISSDKSEGRFLGWVSSLINAAFTYQGTELVGITAGEAANPRKTVPRAINKVVFRIVLFYIMSLFFIGLLVPYNDSRLSASSAVIASSPFVISIQNAGTYALPDIFNAVVLITVVSAANSNVYVGSRVLYSLARTGNAPKQFGYVTRQGVPYLGVVCTAALGLLAFLVVNNNANTAFNWLINISTLAGLCAWLFISLAHIRFMQALKHRGISRDDLPFKAKLMPYGAYYAAFFVTVIIFIQGFQAFCPFKVSEFFTSYISLILLAVVFIGCQIYYKCRFIWKLEDIDIDSDRREIEAIIWEDDEPKNLWEKFWAAVA
notes: full length, C-terminal TEV-YPet-His8 kept; expressed from plasmid under native LYP1 promoter in S. cerevisiae 22∆6AAL
- Km [2]: 10 ± 0.8 µM

B3: LysP (Salmonella enterica subsp. enterica serovar Typhimurium str. LT2) (protein)
chain: MGSKTKTTEAPALRRELKARHLTMIAIGGSIGTGLFVASGATISQAGPGGALFSYILIGLMVYFLMTSLGELAAYMPVSGSFATYGQNYVEEGFGFALGWNYWYNWAVTIAVDLVAAQLVMGWWFPDTPGWIWSALFLCVIFLLNYISVRGFGEAEYWFSLIKVATVIIFIIVGVAMIIGIFKGVEPVGWSNWTTGDAPFAGGFAAMIGVAMIVGFSFQGTELIGIAAGESENPEKNIPRAVRQVFWRILLFYVFAILIISLIIPYTDPNLLRNDVKDISVSPFTLVFQHAGLLSAAAIMNAVILTAVLSAGNSGMYASTRMLYTLACDGKAPRIFAKLSRGGVPRNALYATTVIAGLCFLTSMFGNQTVYLWLLNTSGMTGFIAWLGIAISHYRFRRGYVLQGYDVNDLPYRSGFFPLGPIFAFVLCLIITLGQNYEAFLKDTIDWGGVAATYIGIPLFLLIWFGYKLIKGTHFVRYSEMHFPERVKK
- Km [3]: 1.5 ± 0.2 µM
